# Measured values: patent publication US9266952B2, “Antibodies against ROR1 and uses thereof” (KANCERA AB, priority 2010, dated 2016)
# B1: 010-D06: ROR1 specific mAb, VH SEQ ID NO: 27, VL SEQ ID NO: 28 (FIG. 15) (antibody, listed as Mus musculus, V domains shown)
# VH: EVQLLESGGGLVQPGGSLRLSCAASGFTFRDYGMHWVRQAPGKGLEWVSAISGSGGSTFYADSVKGRFTISRDNSKNTLYLQMNSLRAEDTAVYYCARGRSAGSMGYFDYWGQGTLVTVSS
# VL: QSVLTQPPSASGTPGQRVTISCTGSSSNIGAGYDVHWYQQLPGTAPKLLIYGNSNRPSGVPDRFSGSKSGTSASLAISGLRSEDEADYYCAAWDDSLNGWVFGGGTKLTVLG
# System: primary patient CLL cells
# Assay: Primary patient CLL cells i.v. in irradiated NOD.SCID mice, spleen
# Assay type: in vivo
# Conditions: 10 mg/kg i.p. from day 5-7 after transfer, sacrificed 3-7 days later, versus isotype control
# Experimental: Primary patient CLL cells are intravenously injected into immuno-deficient NOD. SCID mice. The CLL cells home to the spleen and there form proliferating clusters, very similar to human disease. After allowing to settle in the spleen for 5-7 days, the mice were treated with 10 mg/kg anti-ROR1 antibodies every third day and terminated after (A) 7 days, n=7 mice/group; (B) 7 days, n=9-10 mice/group; (C) 4 days, n=8 mice/group; (D) 3 days, n=5 mice/group. At termination the number of CLL cells is quantified in spleen using FACS staining of human CD45, CD19 and CD20. Each figure represents cells from individual CLL patients.
# NOD.SCID mice received whole-body irradiation of 1 Gy 1 day prior to injection of primary patient cells.
# PBMCs were isolated from peripheral blood of four CLL patients using the Ficoll Hypaque technique. Thereafter, 100×10^6 cells was injected i.v into irradiated NOD.SCID mice. The mice were treated i.p with 10 mg/kg of the ROR1 specific mAb 009-G03, or irrelevant negative control mAb at day 5-7 after transfer of cells to mice and sacrificed 3-7 days later. […]
# Spleens were dissected out, minced, and lysed for red blood cells. The cell suspension were stained with fluorochrome conjugated mAb's recognizing human CD45, CD19 or CD20 and CLL cells were quantified as being either CD45^+CD19^+ or CD45^+CD20^+. […]
molecule,measurement,value
B1,number of grafted CLL cells in the spleen,significantly reduces the number of grafted CLL cells in the spleen
